These results are taken from patent publication US20240301076A1 (CEPHALON, published 2024).

Experiment [1] concerns the target T1, human CXCR2 (human, UniProt P25025 1-360).
T1 construct: also called CXC chemokine receptor 2; hCXCR2
T1 sequence: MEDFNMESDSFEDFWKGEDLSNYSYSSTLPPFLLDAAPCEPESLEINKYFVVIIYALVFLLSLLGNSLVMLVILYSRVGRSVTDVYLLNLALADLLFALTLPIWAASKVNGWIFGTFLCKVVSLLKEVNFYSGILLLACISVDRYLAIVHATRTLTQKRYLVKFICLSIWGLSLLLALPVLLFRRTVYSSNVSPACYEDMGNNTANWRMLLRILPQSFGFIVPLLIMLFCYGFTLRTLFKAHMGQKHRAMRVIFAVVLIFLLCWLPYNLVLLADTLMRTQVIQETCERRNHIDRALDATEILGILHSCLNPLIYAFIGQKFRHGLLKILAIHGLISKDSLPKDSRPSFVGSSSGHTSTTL
The experiment can be described thus: flow cytometry, CXCR2-transfected Expi293F cells. Here is the method:
(§1) Harvested cells were resuspended in FACS buffer (1×PBS+0.5% (w/v) bovine serum albumin (BSA)+2 mM EDTA pH 7.2). Approximately 2×10⁵ cells were added per well in a 96-well round-bottomed plate. Cells were pelleted by centrifugation at 400 g for 5 mins at 4° C. and supernatants discarded. 25 μL of each test antibody or control antibody was added to the cells and incubated for 30 minutes at 4° C. Cells were washed twice in 100 μL FACS buffer followed by centrifugation at 400 g for 5 mins at 4° C.
(§2) For detection, 50 μL of secondary antibody (Table 2) was added to relevant samples. Commercially available antibodies that bound to transfected CXCR family members were used as positive controls to ensure that the cells were expressing the receptors. Cells were washed twice in 200 μL of FACS buffer followed by centrifugation at 400 g for 5 mins at 4° C. Before sample acquisition, cells were resuspended in 100 μL of FACS buffer. Samples were acquired using the high throughput sampler on a FACSCanto™ II cytometer (Beckton-Dickinson).
A further six heavy chain combinational variants comprising four or more amino acid substitutions were produced as provided in Table 12. […] Each heavy chain was co-expressed with light chain c (SEQ ID NO:110) to produce an antibody variant. Antibodies were purified and tested for CXCR2 binding activity as described in General Methods.

The target of experiment [2] is T2, human CXCR1 (human, UniProt P25024 1-350).
T2 sequence: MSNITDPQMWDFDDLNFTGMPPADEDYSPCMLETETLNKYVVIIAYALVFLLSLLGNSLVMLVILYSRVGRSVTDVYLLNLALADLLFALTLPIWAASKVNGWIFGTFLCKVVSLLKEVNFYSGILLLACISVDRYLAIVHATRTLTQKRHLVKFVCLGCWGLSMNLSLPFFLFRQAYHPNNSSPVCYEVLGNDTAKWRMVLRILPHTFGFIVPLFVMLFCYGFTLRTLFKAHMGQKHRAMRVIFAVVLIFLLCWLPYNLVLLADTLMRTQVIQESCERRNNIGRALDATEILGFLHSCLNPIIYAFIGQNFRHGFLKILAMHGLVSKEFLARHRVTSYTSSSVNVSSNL
The experiment can be described thus: flow cytometry, transfected Expi293F cells. As for the experimental part:
as §1, §2
(§3) These antibody variable regions were then generated by gene synthesis and subcloned into mammalian expression vectors as described in General Methods. Antibodies were produced by co-expression of heavy and light chain plasmids in Expi293F™ cells and purified by protein A column chromatography as described in General Methods. Where several heavy and/or light chains were identified from the same hybridoma cells, each heavy chain was paired with each light chain and the resulting antibodies given suffix a, b, c, etc. Purified antibodies were desalted into Sorensen's PBS pH 5.8 and tested by flow cytometry for binding to Expi293F™ cells transfected with human CXCR2 or human CXCR1 and mock transfected Expi293F™ cells.
(In flow cytometry, cells or beads pass a laser one at a time.)

Experiment [3] deals with T1, human CXCR2. The experiment can be described thus: flow cytometry, transfected Expi293F cells. As for the experimental part: as §1, §2, §3
Experiment [4] has as its target T1, human CXCR2. The experiment can be described thus: cell-based or functional assay.

B1: BKO-4A8 combinatorial variant 102c (antibody, human IgG4 S228P, lambda, V domains shown)
VH: EVQLLESGGGLVQPGGSLRLSCAASGFTFSSSTQSWVRQPPGKGLEWVSAISGRGRSTYYADSVKGRFTISRDNSKNTLYLQMNSLRAEDTAVYYCAIQEGYWGQGILVTVSS
VL: QSALTQPPSASGSPGQSVTISCIGTSSDVGGYNYVSWYQQHPGKAPKLMIYEVSKRPSGVPDRFSGSKSGNTASLTVSGLQAEDEADYYCSSYAGSNNFGVFGGGTKLTVLG
notes: IgG4 S228P, lambda
A word on the EC50: it is the concentration that produces a half-maximal response. With B1, in experiment [1], the EC50 is 8.7 nM, the “Max binding (MFI Percent of 4A8 WT)” value was determined as 53% and the “Max binding (MFI)” value was 33000 MFI.

B2: BKO-8B6 (antibody, human IgG4 S228P, lambda, V domains shown)
VH: EVQLLESGGGLVQPGGSLRLSCAASGFTFSSNAMSWVRQAPGKGLEWVSAISNSGRSTYYADSVKGRFTISRDSSKNTLYLLMNSLRAEDSAVYYCAIKLGYWGQGSLVTVSS
VL: QSALTQPPSASGSPGQSVTISCTGTSSDVGGYNYVSWYQQHPGKAPKLMMYEVSKRPSGVPDRFSGSKSGNTASLTVSGLQAEDEADYYCSSYAGSDNFGVFGGGTRLTVLG
notes: recombinant human IgG4 S228P, lambda
For the molecule B2, the binding result in experiment [2] is “no binding”; in experiment [3] it was “binds”.

B3: BKO-7G10_a (antibody, human IgG4 S228P, lambda, V domains shown)
VH: EVQLLESGGGLVQPGGSLRLSCAVSGFTFSNYAMTWVRQAPGKGLEWVSAISGRGSRTYYADSVKGRFTISRDTSKNTLYLQMNSLRAEDTAVYYCAKMDYWGQGTLVTVSS
VL: QSALTQPPSASGSPGQSVTISCTGTSSDVGGYNYVSWYQQHPGKAPKLMIFEVSKRPSGVPDRFSGSKSGNTASLTVSGLQAEDEADYYCSSYAGSNNFGVFGGGTKLTVLG
notes: as for B2
As to B3, the binding result in experiment [2] is recorded as “no binding”; in experiment [3] it was “binds”.

B4: BKO-9A8 (antibody, human IgG4 S228P, lambda, V domains shown)
VH: EVQLLESGGGLVQTGGSLRLSCAASGFTFSSNTMSWVRQAPGKGLEWVSAISGSGGRTYYVDSVKGRFTISRDNSKNTLYLQMHSLRAEDTAVYYCAIQLGSWGQGILVTVSS
VL: QSALTQPPSASGSPGQSVTISCTGTSSDVGAYNYVSWYQQHPGKAPKLMIYEVTKRPSGVPDRFSGSKSGNTASLTVSGLQAEDEADYYCSSYAGNNNFGVFGGGTKLTVLG
notes: as for B2
Consider B4, for which the results for the binding result in experiment [2] and in experiment [3] were “no binding” and “binds”, respectively.

B5: BKO-7H8_b (antibody, human IgG4 S228P, lambda, V domains shown)
VH: EVQLLESGGGLVQPGGSLRLSCAASGYTFTSSTMSWVRQAPGKGLEWVTAISGRGGRTYYADSVKGRFTISRDNSKNTLYLQMNSLRAEDTAVYYCAIQLGNWGQGILVTVSS
VL: QSALTQPPSASGSPGQSVTISCTGTSSDIGGYNYVSWYQQHPGKAPKLVIYEVNMRPSGVPARFSGSKSGNTASLTVSGLQAEDEADYYCSSYAGNDNFGVFGGGTKLSVLG
notes: as for B2
On to B5, for which the results for the binding result in experiment [2] and in experiment [3] were “no binding” and “binds”, respectively.

B6: BKO-4A8-103c (antibody, human IgG4 S228P, lambda, V domains shown)
VH: EVQLLESGGGLVQPGGSLRLSCAASGFTFSSSTQSWVRQPPGKGLEWVSAISGSGGSTYYADSVKGRFTISRDNSKNTLYLQMNSLRAEDTAVYYCAIQMGYWGQGILVTVSS
VL: QSALTQPPSASGSPGQSVTISCIGTSSDVGGYNYVSWYQQHPGKAPKLMIYEVSKRPSGVPDRFSGSKSGNTASLTVSGLQAEDEADYYCSSYAGSNNFGVFGGGTKLTVLG
notes: IgG4 S228P, lambda
Turning to B6, in experiment [4], the “CXCL1 Fold Improvement over 4A8 WT” value was 2.55 fold; the “CXCL1 IC50, Tango assay” value was 2.4 nM; the “CXCL8 Fold Improvement over 4A8 WT” value is 0.53 fold; the “CXCL8 IC50, Tango assay” value worked out at 1.25 nM. In experiment [1], the EC50 stood at 5.15 nM, the “Max binding (MFI Percent of 4A8 WT)” value came to 72% and the “Max binding (MFI)” value is 44400 MFI.

B7: BKO-4A8-105c (antibody, human IgG4 S228P, lambda, V domains shown)
VH: EVQLLESGGGLVQPGGSLRLSCAASGFTFSSSTQSWVRQPPGKGLEWVSAISGSGGSTYYADSVKGRFTISRDNSKNTLYLQMNSLRAEDTAVYYCAIQAGYWGQGILVTVSS
VL: QSALTQPPSASGSPGQSVTISCIGTSSDVGGYNYVSWYQQHPGKAPKLMIYEVSKRPSGVPDRFSGSKSGNTASLTVSGLQAEDEADYYCSSYAGSNNFGVFGGGTKLTVLG
notes: IgG4 S228P, lambda
Turning to B7, in experiment [4], the “CXCL1 Fold Improvement over 4A8 WT” value amounted to 0.24 fold; the “CXCL1 IC50, Tango assay” value came to 4 nM; the “CXCL8 Fold Improvement over 4A8 WT” value is 0.36 fold; the “CXCL8 IC50, Tango assay” value came out at 1.85 nM. Moreover, in experiment [1], the EC50 turned out to be 5.73 nM, the “Max binding (MFI Percent of 4A8 WT)” value was found to be 52% and the “Max binding (MFI)” value amounted to 42700 MFI.

B8: BKO-4A8 combinatorial variant 106c (antibody, human IgG4 S228P, lambda, V domains shown)
VH: EVQLLESGGGLVQPGGSLRLSCAASGFTFSSSTQSWVRQPPGKGLEWVSAISGSGGSTYYADSVKGRFTISRDNSKNTLYLQMNSLRAEDTAVYYCAIQEGYWGQGILVTVSS
VL: QSALTQPPSASGSPGQSVTISCIGTSSDVGGYNYVSWYQQHPGKAPKLMIYEVSKRPSGVPDRFSGSKSGNTASLTVSGLQAEDEADYYCSSYAGSNNFGVFGGGTKLTVLG
notes: IgG4 S228P, lambda
Regarding B8, in experiment [1], the half-maximal effective concentration (EC50) is > 100 nM and the “Max binding (MFI)” value was determined as 11600 MFI.

B9: BKO-4A8-104c (antibody, human IgG4 S228P, lambda, V domains shown)
VH: EVQLLESGGGLVQPGGSLRLSCAASGFTFSSSTQSWVRQPPGKGLEWVSAISGSGGSTYYADSVKGRFTISRDNSKNTLYLQMNSLRAEDTAVYYCAIQKGYWGQGILVTVSS
VL: QSALTQPPSASGSPGQSVTISCIGTSSDVGGYNYVSWYQQHPGKAPKLMIYEVSKRPSGVPDRFSGSKSGNTASLTVSGLQAEDEADYYCSSYAGSNNFGVFGGGTKLTVLG
notes: IgG4 S228P, lambda
As for B9, in experiment [4], the “CXCL1 Fold Improvement over 4A8 WT” value was 0.43 fold; the “CXCL1 IC50, Tango assay” value worked out at 2.17 nM; the “CXCL8 Fold Improvement over 4A8 WT” value was 0.88 fold; the “CXCL8 IC50, Tango assay” value was determined as 0.75 nM. Besides, in experiment [1], the 50% effective concentration (EC50) was found to be 6.45 nM, the “Max binding (MFI Percent of 4A8 WT)” value is 54% and the “Max binding (MFI)” value is 45100 MFI.

B10: BKO-6A1_b (antibody, human IgG4 S228P, lambda, V domains shown)
VH: QVQLKQWGAGLLKPSETLSLTCAVYGGSFSGYYWTWIRQPPGKGLEWIGEINHSGSTNYNPSLKSRVTMSVDTSKNQFSLKLRSVTAADTAVYYCARGEVRGLITLYWYFDVWGRGSLVTVSS
VL: SSELTQDPAVSVALGQTVRITCQGDSLRSYYASWYQQKPGQAPVLVIYGKNNRPSGIPDRFSGSSSGNTASLTITGAQAEDEADYYCNSRDSSGNHVVFGGGTKLTVLG
notes: as for B2
On to B10, for which the binding result is reported as “no binding” in experiment [2] and “binds” in experiment [3].

B11: BKO_7C11 (antibody, human IgG4 S228P, lambda, V domains shown)
VH: QVQLQQWGAGLLKPSETLSLTCAVYGGSFSGYYWSWIRQPPGKGLEWIGEINHSRNTNYNPSLKSRVTISVDTSKNQFSLKLSSVTAADTAVYYCARGEVRGVFTLYWYFDVWGRGTLVTVSS
VL: SSELTQGPAVSVALGQTVRITCQGNSLRFYYASWYQQRPGQAPILVIYDKNNRPSGIPDRFSGSSSGNTASLTITGAQAEDEADYYCNSRDSSGYYMIFGGGTKLTVLG
notes: as for B2
Regarding B11, the binding result in experiment [2] was “no binding”; in experiment [3], “binds”.

B12: BKO-8C4 (antibody, human IgG4 S228P, lambda, V domains shown)
VH: QLQLQESGPGLVKPSETLSLTCTVSGGSIRTSSYYWGWIRQPPGKGLEYIGSIYYSGTTYYNPSLKSRVTMSVDTSKNQFSLKLSSVTAADTAVYYCARHGRVREVPPFDYWGQGTLVTVSS
VL: SSELTQDPAVSVALGQTVRITCQGDSLRYYYASWYQQKPGQAPVLVIYDENSRPSGIPDRFSGSSSGNTASLRITGTQAEDEADYYCNSRDTSGNHWAFGGGTKLTVLG
notes: as for B2
On to B12, for which the values for the binding result in experiment [2] and in experiment [3] were “no binding” and “binds”, respectively.

B13: BKO-10G10 (antibody, human IgG4 S228P, lambda, V domains shown)
VH: QLQLQESGPGLVKPSETLSLTCTVSGGSIRRSSYYWGWIRQPPGKGLEWIGSFYNSGNTYYKPSLKSRVAISVDTPKNQFSLKLSSVTAADTAVYYCARGYSSGGFDPWGQGTLVTVSS
VL: QSALTQPASVSGSPGQSITISCTGTSSDVGGYNYVSWCQQHPGKAPKIMIFDVSNRPSGVSNRFSGSKSGNTASLTISGLQAEDEADYYCSSYTSSSTWVFGGGTRLTVLG
notes: as for B2
Consider B13, for which the binding result is “no binding” in experiment [2] and “binds” in experiment [3].
